The DeepSol protein solubility set

Test: soluble on expression in E. coli; label from the status in PepcDB or PDB records

Row | Sequence | soluble on expression in E. coli
1 | MAHHHHHHMSEAAALESIMRPPSPELQRRLFVPTPSLHASAETARQHRAERQSALLAERATAYTCHPAILPVSREMAASERRRNGWMQLPVGDVLMERHKRVEGHLEEKRQQEVARFSFRPTISARARTMQSSRPVVERLYSGTADAGTDTATFTDVTNLRSSSGEKTKTASMATYQRLYQDAVTRRAHDQMQEKLARVRSKNEFCPCTDSVSGLIASKRGDTTRERLLRPKAALDVARDVYPQETFAPRINTSTRFERVPLSARAAIWQRRRSERLHHAVVARCEVEMRECTFHPRTRRGLTALSQAHARATADSYTGPLASIMSSAEELLRRVDLEASAPLPESGRCAPLLDDDGKLPGTVPVDILAVLHEAEHVSEALRLLPDTNLDLDLSQHTSLG | not soluble
2 | MAHHHHHHMSGEKKEALKNDLPPIPGCDTDGQTYKSAEEMWAAELRGNLYDAETGWYGRSLQYWSKVPATVSGVLGGMEHIHDVDLKESRAFITSIPDRGTSRALDCGAGIGRVTKYLLSTLYTVTDLLEPVANMLEKAKEELKGYPVGEFFLSSMETVNLKPNTYDLIVIQWTAIYLTDDDFVKFLAHCKTALTLRGYIFFKENCSCDERFVVDKEDSSLTRSDAHYKRIFAAAGVEVVKETMQKEWPDDLFKVKMYALR | soluble
3 | MAHHHHHHMSIYCRLASPPVFLRALHTVSVSRDGWATVVFTDSHVVLHVEGTDENMTATCTLPKNLFAEYAVVETRFALHIPTLIDALLMLG | not soluble
4 | MAHHHHHHMSIYCRLASPPVFLRALHTVSVSRDGWATVVFTDSHVVLHVEGTDENMTATCTLPKNLFAEYAVVETRFALHIPTLIDALLMLGPSVATASTRAVLAYPTDDAKLLVELTPTDRVAGGGSCGGFSGGGPMTQSDLGV | soluble
5 | MAHHHHHHMSLRLCVCTATANGEYYMSMFNKHLSSFFKTITLGSTVDDFKQDKDSKDSIILYVEGPVGHDAIKYLCDDYHLPKEQRRVLWIYSLTAGVDVYRLGELVKELQDIPFANARGCYSSVLAEHVMYSMLYFYRQTWRSLASRAEHKWDPFLMVELRGKKVGIIGYGDIGQASAKLLSAFGMEVTGVKRSASTKEVDEYGVRLVHGDAERERVLRESDFVVNILPGTEETKRFFNKELFSMMKPSAVYISIGRGITQNEDDLACALRDGVIRGASVDVFEREPLPAESPLWDISDDKLLLTAHSADRTANLVPDSVRRFIGLVNEYAKTKRLDTYLVDPVRGY | not soluble
6 | MAHHHHHHMSLRPDVFGQPPIVDRFARFAIARRGSSSSHNNNNNNNNNNSGSVSPLERGGVHGNDKSPAAAPVAAGVGSKAGVRESSAKSRLSLGVSNTDVVLESPISSNAAEATSEVMDVTSTAQADDEEEDEVETLNRFMADQSDETATRTHKRTLFSLNLTLAEVMETAMHFSQMRPTSPEEYKKAMAMIRAADDARHERIAAFRSATPTTGSHNGMGSSPSSSLTTTPTVGYPDAALHIEEPMHFGVVMLHIRFALRKIIHASMRRLAAQQGPKTLSMMVEMLREVDPKWHQNQNNNSGELRRQSDSMLAGTLRVLVARSVVCVDLVGEAGDLLGGGAGGLAISAVGLQRTERALHLVQRAKRSATGSGGNTGDHVSRRRPQRHRGDGGARTSSSGEKRSIS | not soluble
7 | MAHHHHHHMSLVKMKERDEKAREEAEKLLNEVIEQSQGKMYKPTAAAGVGVNTQPHNRRMRVETLRSTPDYIFKIILVGDSYVGKTRFLKNLVGAIGFGDQCVTTLSVDVVNHYVIVDGKTVQVLMYDTCGQERFRAMTAQFYRDAHGAIMVYDTTQIGSFDNIEVWFSQLNSFGCENTSKILVGNKCDLPERRAVEIGRARALADKLGVPFIETSAMTGAGVAVAVEALVRMIMRQQPVPLASQWAGSKSGHRNAVNLERPRRENGTGRRSERSQRNDNCCCQ | soluble
8 | MAHHHHHHMSRHPLSRHINTSSVKLKIVKCKLFDIGEGISEVEITQWNKNEGDNVSEMETLLTVQSDKAAVDITSKYSGVLVKRYAEEKDVIKIGSYFCEIDTEDEVGEAAEEVVANEVADEADGRVDPGGPLSPAKVTQQGSKAPTVKASPGVKKKAQEYKLDVDAIGSYFSKEAITMLDVELYHQKVKSGEISNAGSDFNGEVLEEVPLKGIKLAMCKCMNDSLSIPLFHLNEKYNVQNLLSARNVIKKSVLQKDNVNVTLTSVLIKLISTVLKDFPLLNSKFDSQKNAYTIFKSHNVCVAMDTPNGLLVPNIKQVESKNVVEIQKELTSLRDKALQMKLSKSDISGGTITVSNFGVIGGTFATPIVFENQACIIGLSKIQKQLLLKNEKKELTALSDILVADVMNLTFGADHRFVDGATLAQFSKKLKEVVEGVTSLDPYAA | not soluble
